In the supplement of paper PMC9170038:

What was measured:
[1] = tested on: MS2 coat protein; assay: apparent KD of MS2 coat protein; designed switch direction (-1 OFF switch, 1 ON switch): 1; higher = weaker reporter binding; details: Eterna round: R98
Experimental: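 RNA-MaP: designed FMN/MS2 RNA switches (84 nt design region) are transcribed on-chip within common flanks and titrated with SNAP-549-labelled MS2 coat protein (about 1-3000 nM) in 100 mM Tris pH 7.5, 80 mM KCl, 4 mM MgCl2, without or with 200 uM FMN. Median apparent KD per design; activation ratio = KD,OFF / KD,ON.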

[2] = tested on: MS2 coat protein; assay: apparent KD of MS2 coat protein, switch ON state; designed switch direction (-1 OFF switch, 1 ON switch): 1; higher = weaker reporter binding; details: FMN input: 0 or 200 uM; Eterna round: R93 (includes R88 designs)
Summary of the method: (§1)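 Apparent KD is reported per design as the median of normalised binding-curve fits across its clusters. The RNA switches were made by on-chip transcription from Illumina sequencing clusters. SNAP-549-labelled MS2 coat protein was then added in twofold steps (0.7 or 1.5 nM to 3 µM; 0.8–1.5 h to 10–20 min per step) in 100 mM Tris-HCl pH 7.5, 80 mM KCl, 4 mM MgCl2, without or with constant ligand.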

[3] = tested on: MS2 coat protein; assay: apparent KD of MS2 coat protein, switch OFF state (with FMN for OFF switches, without FMN for ON switches); designed switch direction (-1 OFF switch, 1 ON switch): 1; higher = weaker reporter binding; details: FMN input: 0 or 200 uM; Eterna round: R93 (includes R88 designs)
Summary of the method: as §1

AAUAAUCAGGUAGGAUAUGCUCAGGAUAACUGAGCAGAAGGACUAGAAACCUGAGGAUCACCCAGGUAACUGGAAUAAUAAUAA [Same State NG1 - A3C, U17G Submission 6B]
apparent KD of MS2 coat protein ([1]; input ligand: FMN 200 uM): 0.0574 µM | apparent KD of MS2 coat protein ([1]; input ligand: none): 0.121 µM

UGGGAAUGAACAUGAGGAUCACCCAUGUCCCGGAAACGGAAUGAGGAUAUCCAUAGCAAAGCUAUGGAGAAGGCAUGGGUCCCA [SaneState 20 - Jieux - Same State NG 2]
apparent KD of MS2 coat protein ([1]; input ligand: FMN 200 uM): 0.475 µM | apparent KD of MS2 coat protein ([1]; input ligand: none): 0.756 µM

UCCGCUAUCGCAGGAUAUUACAUGGGAAAGAGUACAUGAGGAUCACCCAUGUAAAAGAUCAUAAAUAAGAAGGGCGAUAGCGGA [Lame State 9 - Jieux - Same State NG 2]
apparent KD of MS2 coat protein ([1]; input ligand: FMN 200 uM): 0.214 µM | apparent KD of MS2 coat protein ([1]; input ligand: none): 0.0188 µM

GUCCCAGUCACAGGAUAUGGCUCCGUAACGGAACCAGAAGGGUGAUAUUCAGAAAACACACAUGAGGAUCACCCAUGUAAUAAA [Tiorbiti]
apparent KD of MS2 coat protein ([1]; input ligand: FMN 200 uM): 0.164 µM | apparent KD of MS2 coat protein ([1]; input ligand: none): 0.469 µM

CGUUGUUCCGCAGGAUAUGUAUUGGAUUACAAUACAGAAGGGCGAUAACAUGAGGAUCACCCAUGUGUGGACAAUGAGGAAGAG [SameState #38 NG1]
apparent KD of MS2 coat protein ([1]; input ligand: FMN 200 uM): 0.0549 µM | apparent KD of MS2 coat protein ([1]; input ligand: none): 0.789 µM

AUUAACGGAGCUACAUGAGGAUCACCCAUGUACGGGUGAUCCUAGGAUAUGCCCGCAACUGUGUCGCAGAAGGAGGGUUGCCCA [Soterixe]
apparent KD of MS2 coat protein ([1]; input ligand: FMN 200 uM): 0.0376 µM | apparent KD of MS2 coat protein ([1]; input ligand: none): 0.0256 µM

UAUAAACAUGAGGAUCACCCAUGUAGAAAUAUGGGAGGAUAUACAAAGACGAAAGUCAAAGUAGAAGGCCUAAUAA [Mat - Same State 1 - Mod - D156]
apparent KD of MS2 coat protein [2]: 0.0166 µM | apparent KD of MS2 coat protein [3]: 0.0894 µM

GGAGUACAUGAGGAUCACCCAUGUUGGAACAAAGUAGGAUAUGUACAAUAUUAAAUAAAAACAGAAGGACUAAGAA [Gold Rush]
apparent KD of MS2 coat protein [2]: 0.0233 µM | apparent KD of MS2 coat protein [3]: 0.0371 µM

CGCGAACAUGAGGAUCACCCAUGUGAAAAACACAGAGGAUAUGUCGCAUGCGUGUAAAAGACAGAAGGCUGUCGCG [mod of top voted: #3]
apparent KD of MS2 coat protein [2]: 0.0197 µM | apparent KD of MS2 coat protein [3]: 0.084 µM

GAAAAACAUGAGGAUCACCCAUGUAGAAAUAUGGGAGGAUAUACAAAGACGAAAGUCAAAGUAGAAGGCCUUAAAG [JL S1 M-MoE mod 1 In the Red]
apparent KD of MS2 coat protein [2]: 0.0283 µM | apparent KD of MS2 coat protein [3]: 0.0549 µM

AACAAUCUAUCUGAGGAUAUCAUGUAAAAAACAUGAGGAUCACCCAUGUCUAGGAAAACUAGAUAUGAGAAGGCAGAUAGAUUGA [SS1 - 596]
apparent KD of MS2 coat protein [2]: 0.11 µM | apparent KD of MS2 coat protein [3]: 0.0861 µM

AAAAAACAUGAGGAUCACCCAUGUAAAAAAAACACAGGAUAUCCCUUUUUUAAAUGAAAAGGAGAAGGGUGAAAAA [Nob's Hobby 9 - Jieux - Same State 1]
apparent KD of MS2 coat protein [2]: 0.0226 µM | apparent KD of MS2 coat protein [3]: 0.024 µM

AAAAUAUAAACGGAGGAUAUCCAAAGAACCACAUGAGGAUCACCCAUGUAAAGAAAGAAUAAGUGGGAGAAGGCCGAAAUAAUAA [Designing denovo 27]
apparent KD of MS2 coat protein [2]: 0.0189 µM | apparent KD of MS2 coat protein [3]: 0.0569 µM

AAAAAAAAGGGUGAGGAUAUCGAAAAAAAAACAUGAGGAUCACCCAUGUGAAAAAAAAAAAAAUGCGAGAAGGCACUAAAAAAAAA [Same State 2.3]
apparent KD of MS2 coat protein [2]: 0.0232 µM | apparent KD of MS2 coat protein [3]: 0.104 µM

GAACCACAUGAGGAUCACCCAUGUCUAAAUAUGGGAGGAUAUGCACAAAAGGAAAUAACUGCAGAAGGCCUACGAA [62%, Redo, 3]
apparent KD of MS2 coat protein [2]: 0.0257 µM | apparent KD of MS2 coat protein [3]: 0.135 µM

AUAAAACAUGAGGAUCACCCAUGUAAAAAAGCAUGAGGAUAUAUAAAAAGAAAAAGAAGAAUAGAAGGCAUAAUAA [JR_SS001_Sub1223]
apparent KD of MS2 coat protein [2]: 0.0607 µM | apparent KD of MS2 coat protein [3]: 0.0505 µM

AUAAAACAUGAGGAUCACCCAUGUAGAAACAUGGGAGGAUAUACAAAGACGAAAGUCAAAGUAGAAGGCCUAAAAG [Meechl MS2 SS1 2]
apparent KD of MS2 coat protein [2]: 0.104 µM | apparent KD of MS2 coat protein [3]: 0.0673 µM

AGAAAUAAAAGCGAGGAUAUCCAAAAGAAAACAUGAGGAUCACCCAUGUAAAAGAAAAUAAAAUGGGAGAAGGCGCAAAAUAAAG
apparent KD of MS2 coat protein [2]: 0.0147 µM | apparent KD of MS2 coat protein [3]: 0.0273 µM

AGAAGACAUGAGGAUCACCCAUGUGGGAUUAUGGGAGGAUAUACAAAGACGAGAGUCAGAGUAGAAGGCCUAGGAG [salish99-ss1-114(!)]
apparent KD of MS2 coat protein [2]: 0.0454 µM | apparent KD of MS2 coat protein [3]: 0.0664 µM

AGGAAACAUGAGGAUCACCCAUGUAAAAGGUGGGUAGGAUAUGCGAAAAGAAAAAGAAAAGCAGAAGGACCAAGAA [62%, Something completely different, 1]
apparent KD of MS2 coat protein [2]: 0.0387 µM | apparent KD of MS2 coat protein [3]: 0.108 µM

AGAAAACAUGAGGAUCACCCAUGUAGGAAUAUGGGAGGAUAUACAAAGACGAAAGUCAGAGUAGAAGGCCUAGGAA [salish99-SS1-089]
apparent KD of MS2 coat protein [2]: 0.0207 µM | apparent KD of MS2 coat protein [3]: 0.0715 µM

AGAAUAAAAACAGAGGAUAUCCAAAAGAAAACAUGAGGAUCACCCAUGUAAAAGAAAAUAAAAUGGGAGAAGGCUGAAAAAAAGA [Mat - Same State 2 - Eli mod - D98]
apparent KD of MS2 coat protein [2]: 0.025 µM | apparent KD of MS2 coat protein [3]: 0.0393 µM

GGGAGGAAGAGAGAGGAUAUCCAAAGGAAAACAUGAGGAUCACCCAUGUAAAAGGUAGGAAAUUGGGAGAAGGCUCAAGAGAAAG [salish99-ss2-054]
apparent KD of MS2 coat protein [2]: 0.0298 µM | apparent KD of MS2 coat protein [3]: 0.0516 µM

GUGUAUAGAAUCGAGGAUAUCCUGUAAUGCACAUGAGGAUCACCCAUGUAAGAGCGAGAAUAAUGGGAGAAGGCGAGUUAUCGGU [JR_SS002_Sub1710]
apparent KD of MS2 coat protein [2]: 0.0275 µM | apparent KD of MS2 coat protein [3]: 0.0461 µM

GAAGACAUAGUUCAGGAUAUAGGAAUAGUCACAUGAGGAUCACCCAUGUGCAUUUAUAUGCGCACUUAGAAGGGAGGUAGUUAUA [SameState2 Malc#22]
apparent KD of MS2 coat protein [2]: 0.0322 µM | apparent KD of MS2 coat protein [3]: 0.0264 µM

AAAAGACAUGAGGAUCACCCAUGUAAAAACGUGGGAGGAUAUGCAUGGAAAACAUGCUGUGCAGAAGGCCCGUGUC [SS1 - 22]
apparent KD of MS2 coat protein [2]: 0.263 µM | apparent KD of MS2 coat protein [3]: 0.2 µM

AAAUAAAGGACUGAGGAUAUACCACAUGAAACAUGAGGAUCACCCAUGUAAUAAUACAAAGGGUGGUAGAAGGUAGUCCACAAACA [so let's mod Hyphema]
apparent KD of MS2 coat protein [2]: 0.014 µM | apparent KD of MS2 coat protein [3]: 0.0268 µM

UCCUUACAUGAGGAUCACCCAUGUCGCAGGAAUCAAGGAUAUGGGUCCGCAAUGCGGAAACCAGAAGGUGACAAAA [Edusquanon]
apparent KD of MS2 coat protein [2]: 0.165 µM | apparent KD of MS2 coat protein [3]: 0.489 µM

GAGGACAUAGUAUAGGAUAUAUGAAUAAUUACAUGAGGAUCACCCAUGUCCAUUUAUAUGGGAACAUAGAAGGGUGGUAGUUGUC [Mat - Same state - Malcolm Mod - D130]
apparent KD of MS2 coat protein [2]: 0.073 µM | apparent KD of MS2 coat protein [3]: 0.2 µM

AGGAAACAUGAGGAUCACCCAUGUAAAGAUGGGCGAGGAUAUCGAAAGAAAAGAAAGAAACGAGAAGGUGCAAAAG [59%, Flamingo, 1]
apparent KD of MS2 coat protein [2]: 0.409 µM | apparent KD of MS2 coat protein [3]: 0.251 µM

AAAACACAUGAGGAUCACCCAUGUAAAAACAUGAGAGGAUAUGCAUAGAAAAAAAACUAUGCAGAAGGCUCAUGUG [SS1 - 5]
apparent KD of MS2 coat protein [2]: 0.02 µM | apparent KD of MS2 coat protein [3]: 0.0291 µM

GGGAGGAAGAGAGAGGAUAUCCAAAGGAAAACAUGAGGAUCACCCAUGUAAAAGGUAGGAAAUUGGGAGAAGGCUCAAGAGAGGG [salish99-ss2-051]
apparent KD of MS2 coat protein [2]: 0.0236 µM | apparent KD of MS2 coat protein [3]: 0.028 µM

GAAGACAUAGUUCAGGAUAUGGUAAUAGUCACAUGAGGAUCACCCAUGUGCAUUUAUAUGCGCGAUCAGAAGGGAGGUAGAUAAG [Mat - Same state - Malcolm Mod - D116]
apparent KD of MS2 coat protein [2]: 0.0186 µM | apparent KD of MS2 coat protein [3]: 0.0183 µM

AGGAAACAUGAGGAUCACCCAUGUAAAAGGUGGUUAGGAUAUGCGAAAAGAAAAAGAAAAGCAGAAGGGACAAGAA [Inspired by JR's SameStare1_sub2]
apparent KD of MS2 coat protein [2]: 0.237 µM | apparent KD of MS2 coat protein [3]: 0.415 µM

AGGAAACAUGAGGAUCACCCAUGUAAAAAUAUGGGAGGAUAUACGAAGACAAAAAAAAAAGUAGAAGGCCUAAAAG [Garnet 12]
apparent KD of MS2 coat protein [2]: 0.0652 µM | apparent KD of MS2 coat protein [3]: 0.266 µM

UAAAAACAUGAGGAUCACCCAUGUGAGAACAUGGGAGGAUAUACGAAGACGAAAGUCGAAGUAGAAGGCCUAAAAU [Mat - Same State 1 - Mod - D172]
apparent KD of MS2 coat protein [2]: 0.145 µM | apparent KD of MS2 coat protein [3]: 0.0393 µM

CGGAGACAUGAGGAUCACCCAUGUGAGAAGAGGCGAGGAUAUCGAAAGAAAGAAGAGAAACGAGAAGGCGCGAGUA [salish99-SS1-066]
apparent KD of MS2 coat protein [2]: 0.0203 µM | apparent KD of MS2 coat protein [3]: 0.0319 µM

UGGAAACAUGAGGAUCACCCAUGUAAAAGGUGGUCAGGAUAUGCGAAAAGAAAAAGAAAAGUAGAAGGGACAAGAA [Mod of Eli's Mod]
apparent KD of MS2 coat protein [2]: 0.0659 µM | apparent KD of MS2 coat protein [3]: 0.0678 µM

GAAAAACAUGAGGAUCACCCAUGUAAAAAUAUGGGAGGAUAUUGAAAGACGAAAGUCAAACAAGAAGGCCUAAAAG [Garnet 2]
apparent KD of MS2 coat protein [2]: 0.0222 µM | apparent KD of MS2 coat protein [3]: 0.119 µM

AUAAAACAUGAGGAUCACCCAUGUAGAAAUAUGGGAGGAUAUACAAAGACGAAAGUCAAAGUAGAAGGCCUAAAAG [Mod of Meechl's design Meechl MS2 SS1 2]
apparent KD of MS2 coat protein [2]: 0.024 µM | apparent KD of MS2 coat protein [3]: 0.0662 µM
